Data on two molecules can be found in patent US20220213157A1 (PEKING UNIVERSITY, published 2022).

Data set [1] has as its target human CSQ2 D348C mutant, without the signal peptide (human) (UniProt O14958). As to the kind of experiment: cell-based or functional assay.
Data set [2] concerns the molecule itself. The data set can be described thus: crystal structure of rat CSQ2 with 200 mM Ca2+, homodimers in the asymmetric unit. On the procedure:
Human CSQ2 crystals were obtained according to a hanging drop vapor diffusion method (24-well hanging drop plate, XtalQuest) at 16° C. using 1.5 μL protein solution (25 mg/ml) and 1.5 μL reservoir solution containing 100 mM Na cacodylate (pH 6.0), 25% (vol/vol) 2-methyl-2,4-pentanedio (MPD) and 40 mM calcium lactate. Small needle-like crystals appeared within two days. After several rounds of stick seeding, the crystals had grown to approximately 50×50×400 μm. The Se-Met CSQ2 crystals were obtained using the same process. Diffraction data of native and Se-Met crystals were collected and were prcessed using CCP4 program suit (see, e.g., Winn, M. D. et al. Overview of the CCP4 suite and current developments. Acta. Crystallogr. D. Biol. Crystallogr. 67, 235-242 (2011). doi: 10.1107/S0907444910045749). The initial phase was determined by MR-SAD using PHENIX (see, e.g., P. D. Adams et al., PHENIX: a comprehensive Python-based system for macromolecular structure solution. Acta. Crystallogr. D. Biol. Crystallogr. 66, 213-221 (2010). doi: 10.1107/S0907444909052925). […] The phase was determined by molecular replacement using human CSQ2 structure as a searching model. […]
The crystal structures of the human CSQ2 protein and the rat CSQ2 protein were determined to be 2.2 Å and 2.8 Å with a high concentration of Ca²⁺ in the reservoir solution (40 mM Ca²⁺ for human CSQ2, 200 mM Ca²⁺ for rat CSQ2). […]

“human CSQ2 D348C mutant, without the signal peptide (from UniProt O14958 20-399)” came in with a current of the CSQ2-immobilized single-molecule junction at 25 mV bias (1 mM Ca2+, 1.2 mM Mg2+) in data set [1] of 15 pA.

B1: rat CSQ2 (calsequestrin 2), amino acids 20-413, without the signal peptide (other)
chain: EEGLNFPTYDGKDRVVSLSEKNLKQVLKRYDLLCLYYHEPVSSDKVAQKQFQLKEIVLELVAQVLEHKNIGFVMVDSRKEAKLAKRLGFSEEGSLYVLKGGRTIEFDGEFAADVLVEFLLDLIEDPVEIVNNKLEVQAFERIEDQIKLLGFFKNEDSEYYKAFQEAAEHFQPYIKFFATFDKGVAKKLSLKMNEVGFYEPFMDEPSVIPNKPYTEEELVEFVKEHQRPTLRPLRPEDMFETWEDDLNGIHIVAFAEKSDPDGYEFLEILKQVARDNTDNPDLSILWIDPDDFPLLVAYWEKTFKIDLFKPQIGVVNVTDADSVWMEIPDDDDLPTAEELEDWIEDVLSGKINTEDDDNEDEDDDGDNDNDDDDDDDDNDDEDNDDDDDDDDDDE
notes: Entered as the monomer
On to B1, for which the binding result in data set [2] is “binds”.
